Data on one molecule can be found in paper PMC8980812, “Regulation of the activity of the bacterial histidine kinase PleC by the scaffolding protein PodJ” (The Journal of Biological Chemistry, 2022).

The target in one series is T1, PleC PAS AB-HK (Caulobacter crescentus).
T1 sequence (P37894 whole entry, looked up): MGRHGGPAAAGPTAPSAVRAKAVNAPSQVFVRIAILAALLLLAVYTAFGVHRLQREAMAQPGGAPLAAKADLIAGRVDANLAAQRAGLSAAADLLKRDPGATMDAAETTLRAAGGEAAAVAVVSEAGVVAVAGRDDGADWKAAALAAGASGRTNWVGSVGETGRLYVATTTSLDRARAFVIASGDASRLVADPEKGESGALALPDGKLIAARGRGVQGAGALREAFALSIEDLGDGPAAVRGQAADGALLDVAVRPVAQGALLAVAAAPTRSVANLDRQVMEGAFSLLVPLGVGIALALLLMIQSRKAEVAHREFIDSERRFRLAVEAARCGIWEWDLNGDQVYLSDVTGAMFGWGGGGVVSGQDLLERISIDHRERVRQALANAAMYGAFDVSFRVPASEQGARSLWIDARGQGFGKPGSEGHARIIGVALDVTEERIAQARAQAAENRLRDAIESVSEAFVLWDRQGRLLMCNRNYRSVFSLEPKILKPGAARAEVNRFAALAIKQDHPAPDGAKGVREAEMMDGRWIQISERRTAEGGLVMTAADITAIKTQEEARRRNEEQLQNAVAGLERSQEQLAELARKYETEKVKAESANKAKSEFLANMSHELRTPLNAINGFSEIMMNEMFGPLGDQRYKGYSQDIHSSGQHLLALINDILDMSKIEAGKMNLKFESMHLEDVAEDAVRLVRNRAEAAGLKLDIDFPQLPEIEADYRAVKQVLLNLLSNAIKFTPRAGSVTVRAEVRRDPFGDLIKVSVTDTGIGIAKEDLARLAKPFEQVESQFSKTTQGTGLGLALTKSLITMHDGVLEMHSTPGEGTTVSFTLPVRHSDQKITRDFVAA
The experiment in a line: cell-based or functional assay.

Series [1] concerns the molecule itself. Kind of series: SEC; 3.2 mg/ml His-PodJ(1–635), Superdex 200 10/300 GL, 50 mM Tris-HCl pH 8.0, 300 mM KCl.

B1: His-PodJ(1–635) (domain or fragment, Caulobacter crescentus, UniProt Q9ZG88 1-635, looked up)
chain: MTAASPWSVKGIDPKAREVAKDLARRSGMTLGEWLNRMIIEGDGQTADPRLAGDDVPNRAYLEIVKDDAPPRIEIAEHPADEVGRVALALDRLTQRIEAAEGRNAAAITGIDHSVRDALTRLGASEREQIAVAARFEGAVDELKTEQARATERLRRIESEAAGPRSAEALRALEGALGKVAGHLYEGEARTREAIATLEAKLNQQSSGDPSALVEAVVARLGERLEAAETRTSDALRELGASFQALDQRLGAVETANPATGVQEGLDSLAATLTQKMEAARLEMAAKLRESADGRFDRMERKLGEMAAHVQAAEQRSAQAIERMGREIVGVADAFNRRVHAAESRNASAIEQVGGEVARIAASVEHKLNRADSVQAQALEKLGGEIARITEKLAERIGSAERRNALAIDDVGEQVARVTERLNQRHERSSQELVDRIRQSEERTLRMLEEAREKIDSRLSEAQRKLEAAPPSPPPAQAPAPVATAQRPVPPAASPFEDNYFSQAASFSTSEDEADAFDAPPAPARSFEVAEFPAAEPEEPAFAHDDYAIADGFEPESPRYEVEPEVSDFAPAEPSRPMSTRDIIEQARAAARAAAASEGKGGKAKSAKKEKASKASGSLFSGFGGFSTKKSKARL
notes: PodJ, Caulobacter crescentus, cytoplasmic domains without the transmembrane tether, residues 1–635; also called cytoplasmic portion of PodJ; source: E. coli Rosetta (DE3), plasmid pwz091, purified (HisTrap HP)
For B1, the “IC50 of the repression of the ADP production rate of 7.5 μM PleC PAS AB-HK with 1000 μM ATP (coupled enzyme assay), PodJ(1–635) 0-7.5 μM” value in the series with PleC PAS AB-HK was found to be 1860 nM. Also, the binding result in series [1] is “binds”.
